Test results: patent US20250136701A1 (GO THERAPEUTICS, published 2025)
Substitutions are numbered along the chain they refer to.

B1: 15C4.1D8.1G2 (antibody, V domains shown)
VH: QVQLQQSDAELVKPGASVKISCKASGYTFTDHAIHWVKQKPEQGLEWIGYFSPGNGDIKYNEKFKGKATLTADKSSSTAYMQLNSLTSEDSAVYFCKRSLPGPMDCWGQGTSVTVSS
VL: NIVMTQSPKSMSMSVGERVTLSCKASENVGIYVSWYQQKPEQSPKLLIYGPSNRYTGVPDRFTGSGSATDFTLTISSVQAEDLADYHCGQSYSYPFTFGSGTKLEIK
notes: Mouse monoclonal antibody from a hybridoma (Balb/c mice immunised with the KLH-conjugated Tn-cMET glycopeptide)
B2: 8H3.2B9.2C7 (antibody, V domains shown)
VH: B1 VH with K40R, G66D, P103D, M104F, C106Y, S112T, V113L
VL: DVQITQSPSYLAASPGETITINCRASKSVSEYLAWYQEKPGKTNKLLIYSGSTLHSGIPSRFSGSGSGTDFTLTITSLAPEDFAMYFCQQHNEYPFTFGAGTKLELK
notes: Mouse monoclonal antibody from a hybridoma; also called GO-8H3
B3: 16E12.1D9.1B11 (antibody, V domains shown)
VH: B1 VH with G56D, I58V, K59R, N61S, P103D, M104F, C106Y, S112T, V113L
VL: DVQISQSPSYLAASPGETITINCRASKSINNYLVWYQEKPGKTIKPLIYSGSTLQTGTPSRFSGSGSGTDFSLTISSLEPEDFAMYYCQQHNEYPFTFGAGTKLELK
notes: Mouse monoclonal antibody from a hybridoma
B4: 39A3 (antibody, V domains shown)
VH: QSLEEYGGDLVKPGASLTLTCTASGLDFSGIYWACWVRQAPGKGLEWIACMDNRVTYATWAKGRFTSSKTSSTTVTLQMTSLTAADTATYFCARGGYGGRGLVFNLWGQGTLVTVSS
VL: DPVLTQTPPSVSAAVGGTVTIKCQSSQSVYNNNELSWYQQKPGQPPKLLIYDASTLASGVPSRFKGSGSGTQFTLTISGVQCDDAATYYCQGIYYIGDWYSAFGGGTEVVVKG
notes: Rabbit monoclonal antibody cloned from B cells
B5: 14E9 (antibody, V domains shown)
VH: QEQLVESGGGLVEPGASLTLTCKASGIDFSSYWICWVRQAPGKGLEWVGCIYTGSGGNTYYATWAKGRFTVSETSSTTVTLRMTSLTAADTATYFCARMGYSAGYIGATYITVGAFNLWGQGTLVTVSS
VL: DVVMTQTPASVGAAVGGTVTIKCQASQSISNWLAWYQQKPGQPPKLLIYSASYLESGVPSRFSGSGSGTEFTLTISDLECADAATYYCQCTYGSSGDSGSWDFGGGTEVVVKG
notes: Rabbit monoclonal antibody cloned from B cells of immunised New Zealand White rabbits

Biological target: T1, cMET-Tn peptide PTKSFISGGSTITGVGKNLN, glycosylated with GalNAc on the serine and threonine residues (O-linked GalNAc on the serine at position 10 and the threonine at position 11; N-terminal biotin in the form described for Biacore and Octet)
T1 construct: Synthetic 20-residue glycopeptide of cMET; GalNAc sites not given; also called Tn-glycosylated cMET peptide; cMET glycopeptide
T1 peptide: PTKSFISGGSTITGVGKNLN
Assay: SPR (Biacore), antibody immobilised, peptide as analyte
Source text: Antibody affinity assays can be carried out using surface plasmon resonance (e.g., using a Biacore system (Cytiva)). In a surface plasmon resonance assay, one or more antibodies can be immobilized onto a biosensor and presented with an analyte (e.g., the cMET-Tn peptide Biotin-[…] (the amino acid portion of which is SEQ ID NO: 285; bold and underlined residues indicate GalNAc glycosylation sites) or a negative control analyte such as an unglycosylated cMET peptide (Biotin-[…] (the amino acid portion of which is SEQ ID NO:286)). The antibodies are contacted with different concentrations of the analyte, for example concentrations of 2.5 nM, 7.4 nM, 22 nM, 66 nM and 200 nM. Affininty is measured using multi-cycle kinetics in triplicate for each analyte concentration, with 1 min association and 5 min dissociation. […] The affinity is determined by fitting the binding curve to a specific model: kinetic fit (1:1 model) or if applicable heterogenous ligand binding model. The error (>95% confidence) was calculated by how close the generated curve matches the model.
B1 was tested, and the Kd was 7 nM. With B2 the Kd was 6.26 nM. B3 showed a Kd of 1.43 nM.

Biological target: T1, cMET-Tn peptide PTKSFISGGSTITGVGKNLN, …
Assay: BLI (Octet), peptide on biosensor, apparent affinity
In the case of B4, the Kd is reported as 52 nM. B1 showed a Kd of 2.83 nM. In the case of B2, the Kd is reported as 7 nM. Binder B3 has a Kd of 19.2 nM. Work on B5 yielded a Kd of 1.5 nM.

What follows are binders tested against T2, MUC1-Tn in the same assay as above.
T2 construct: Specificity control in the Biacore and Octet assays
In the case of B3, the Kd is reported as 2000 nM.
